{"source": "paper PMC9871967", "about": "“A hnRNPA2B1 agonist effectively inhibits HBV and SARS-CoV-2 omicron in vivo” (Protein & Cell, 2022)", "proteins": {"B1": {"name": "heterogeneous nuclear ribonucleoprotein A2B1 (natural protein, UniProt P22626 1-353, looked up)", "chain": "MEKTLETVPLERKKREKEQFRKLFIGGLSFETTEESLRNYYEQWGKLTDCVVMRDPASKRSRGFGFVTFSSMAEVDAAMAARPHSIDGRVVEPKRAVAREESGKPGAHVTVKKLFVGGIKEDTEEHHLRDYFEEYGKIDTIEIITDRQSGKKRGFGFVTFDDHDPVDKIVLQKYHTINGHNAEVRKALSRQEMQEVQSSRSGRGGNFGFGDSRGGGGNFGPGPGSNFRGGSDGYGSGRGFGDGYNGYGGGPGGGNFGGSPGYGGGRGGYGGGGPGYGNQGGGYGGGYDNYGGGNYGSGNYNDFGNYNQQPSNYGPMKSGNFGGSRNMGGPYGGGNYGPGGSGGSGGYGGRSRY", "notes": "heterogeneous nuclear ribonucleoprotein A2B1, endogenous in human hepatoma cell lines, precipitated and detected with anti-hnRNPA2B1 (Santa Cruz sc-32316); Endogenous protein; also called hnRNPA2B1; source: endogenous, HepG2.2.15, HepAD38 and HepG2 cell lysates"}}, "biological_target": "the molecule itself", "assay": "native gel or EMSA; HepG2.2.15 cells treated with PAC5 (10 μmol/L) for the indicated time; cell lysates on native PAGE, hnRNPA2B1-dimerization assay by immunoblot"}
{"protein": "B1", "values": [{"measurement": "stoichiometry N", "value": 2}]}
